In patent publication US20180258152:
Read-outs that look alike come from different tables or passages of the source. Each block holds one binder with its values, some of them ahead of it. No end group written: not given here.

How the values were obtained:
Conditions in all cases: modification not given
[1] = target: T1, human GIP receptor (GIPR) (human), P48546; test: competition
T1 chain: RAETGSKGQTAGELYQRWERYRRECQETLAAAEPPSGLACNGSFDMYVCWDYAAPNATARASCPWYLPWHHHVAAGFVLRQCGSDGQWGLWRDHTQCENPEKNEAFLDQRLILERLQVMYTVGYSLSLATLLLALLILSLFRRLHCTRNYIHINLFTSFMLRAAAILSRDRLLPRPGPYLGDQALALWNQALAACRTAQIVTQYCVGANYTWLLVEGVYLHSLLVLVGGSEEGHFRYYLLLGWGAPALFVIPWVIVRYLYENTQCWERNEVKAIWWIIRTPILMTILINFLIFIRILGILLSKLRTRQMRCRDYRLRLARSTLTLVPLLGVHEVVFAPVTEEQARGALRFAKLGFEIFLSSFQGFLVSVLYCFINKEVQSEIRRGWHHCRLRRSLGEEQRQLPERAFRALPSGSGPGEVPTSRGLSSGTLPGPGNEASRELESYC

[2] = target: T1, human GIP receptor (GIPR) (human), …
[3] = target: T1, human GIP receptor (GIPR) (human), …; test: competition
[4] = target: T1, human GIP receptor (GIPR) (human), …; test: competition
[5] = target: T1, human GIP receptor (GIPR) (human), …; test: other, Schild cAMP
[6] = target: T1, human GIP receptor (GIPR) (human), …; test: competition, 125I-GIP(3-30)NH2
[7] = target: T1, human GIP receptor (GIPR) (human), …; test: competition, 125I-GIP(2-30)NH2
[8] = target: T1, human GIP receptor (GIPR) (human), …; test: competition, 125I-GIP(1-30)NH2
[9] = target: T1, human GIP receptor (GIPR) (human), …; test: competition, 125I-GIP(1-42)
[10] = target: T1, human GIP receptor (GIPR) (human), …; test: competition, 125I-hGIP
[11] = target: T1, human GIP receptor (GIPR) (human), …

Binder: EGTFISDYSIAMDKIHQQDFVNWLLAQK [GIP(3-30)NH2]
IC50 [1]: 4.4 nM
Ki [2]: 14.9 nM
IC50 [3]: 3.4 nM
Ki [3]: 2.3 nM
IC50 [4]: 0.76 nM

Binder: FISDYSIAMDKIHQQDFVNWLLAQK (not fully specified (C-terminus)) [GIP(6-30)NH2]
IC50 [6]: 370 nM
IC50 [7]: 340 nM
IC50 [8]: 1060 nM
Ki [9]: 347 nM

Binder: GTFISDYSIAMDKIHQQDFVNWLLAQK (not fully specified (C-terminus)) [GIP(4-30)NH2]
Ki [9]: 21.5 nM

Binder: SDYSIAMDKIHQQDFVNWLLAQK (not fully specified (C-terminus)) [GIP(8-30)NH2]
Ki [9]: 79 nM

Binder: AEGTFISDYSIAMDKIHQQDFVNWLLAQK (not fully specified (C-terminus)) [GIP(2-30)NH2]
IC50 [6]: 7.7 nM
IC50 [7]: 2.7 nM
IC50 [8]: 26 nM
Ki [9]: 14.3 nM

Binder: TFISDYSIAMDKIHQQDFVNWLLAQK (not fully specified (C-terminus)) [GIP(5-30)NH2]
Ki [5]: 15.2 nM
Ki [9]: 5.9 nM

The next lines start with the values.

Ki [5]: 15 nM
Binder: EGTFISDYSIAMDAIAQQDFVNWLLAQK [hGIP(3-30)K16A H18A]

Ki [5]: 7.9 nM
Binder: EGTFISDYSIAMEKIAQQDFVNWLLAQK [hGIP(3-30)D15E H18A]

IC50 [10]: 7.8 nM
Ki [5]: 37 nM
Binder: EGTFISDYSIAMDKIKQQDFVNWLLAQK [hGIP(3-30)H18K]

IC50 [3]: 16 nM
Ki [11]: 15 nM
Binder: EGTFISDYSIAMDKIHQQDFVNWLLAQK [hGIP(3-30)]

Ki [9]: 307 nM
Binder: DYSIAMDKIHQQDFVNWLLAQK (not fully specified (C-terminus)) [GIP(9-30)NH2]

Ki [5]: 35 nM
Binder: EGTFISDYSIAMDKIAQQDFVNWLLAQK [hGIP(3-30)H18A]
